In one data set the target is BES1-MBP (Arabidopsis thaliana, UniProt Q9LN63 1-335). The data set is described as follows: EMSA. A general note: In EMSA bound probe runs differently from free probe, usually more slowly.
A further data set deals with T1, GST-SMXL6 (Arabidopsis, UniProt Q9LML2 1-979).
T1 sequence (looked up): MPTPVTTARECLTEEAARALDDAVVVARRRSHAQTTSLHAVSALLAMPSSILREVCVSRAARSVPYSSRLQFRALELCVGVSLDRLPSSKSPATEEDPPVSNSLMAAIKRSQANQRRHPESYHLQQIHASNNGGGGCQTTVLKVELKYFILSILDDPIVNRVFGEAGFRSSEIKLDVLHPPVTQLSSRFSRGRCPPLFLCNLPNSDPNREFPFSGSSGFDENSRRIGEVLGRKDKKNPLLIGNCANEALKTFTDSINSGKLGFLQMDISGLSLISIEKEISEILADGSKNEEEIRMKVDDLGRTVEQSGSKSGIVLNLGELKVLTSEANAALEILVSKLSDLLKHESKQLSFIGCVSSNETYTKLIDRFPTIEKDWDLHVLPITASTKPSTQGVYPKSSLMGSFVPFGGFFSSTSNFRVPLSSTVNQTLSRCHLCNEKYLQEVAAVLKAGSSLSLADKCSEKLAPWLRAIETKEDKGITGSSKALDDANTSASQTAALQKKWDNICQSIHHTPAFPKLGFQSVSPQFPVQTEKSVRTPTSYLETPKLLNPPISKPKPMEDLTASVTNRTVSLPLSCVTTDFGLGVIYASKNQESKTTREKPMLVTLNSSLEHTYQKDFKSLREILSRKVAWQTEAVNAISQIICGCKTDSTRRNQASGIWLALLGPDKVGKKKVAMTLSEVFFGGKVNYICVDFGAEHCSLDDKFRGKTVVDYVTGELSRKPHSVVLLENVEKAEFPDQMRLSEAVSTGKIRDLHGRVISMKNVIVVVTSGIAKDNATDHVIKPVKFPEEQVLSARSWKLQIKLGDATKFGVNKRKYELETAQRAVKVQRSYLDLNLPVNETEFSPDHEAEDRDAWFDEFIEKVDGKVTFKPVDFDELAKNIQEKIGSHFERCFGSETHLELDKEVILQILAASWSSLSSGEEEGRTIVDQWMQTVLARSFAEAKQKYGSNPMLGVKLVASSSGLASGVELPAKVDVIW
Description: pull-down.

A further data set addresses T2, GST-SMXL7 (Arabidopsis, UniProt O80875 1-1002).
T2 sequence (looked up): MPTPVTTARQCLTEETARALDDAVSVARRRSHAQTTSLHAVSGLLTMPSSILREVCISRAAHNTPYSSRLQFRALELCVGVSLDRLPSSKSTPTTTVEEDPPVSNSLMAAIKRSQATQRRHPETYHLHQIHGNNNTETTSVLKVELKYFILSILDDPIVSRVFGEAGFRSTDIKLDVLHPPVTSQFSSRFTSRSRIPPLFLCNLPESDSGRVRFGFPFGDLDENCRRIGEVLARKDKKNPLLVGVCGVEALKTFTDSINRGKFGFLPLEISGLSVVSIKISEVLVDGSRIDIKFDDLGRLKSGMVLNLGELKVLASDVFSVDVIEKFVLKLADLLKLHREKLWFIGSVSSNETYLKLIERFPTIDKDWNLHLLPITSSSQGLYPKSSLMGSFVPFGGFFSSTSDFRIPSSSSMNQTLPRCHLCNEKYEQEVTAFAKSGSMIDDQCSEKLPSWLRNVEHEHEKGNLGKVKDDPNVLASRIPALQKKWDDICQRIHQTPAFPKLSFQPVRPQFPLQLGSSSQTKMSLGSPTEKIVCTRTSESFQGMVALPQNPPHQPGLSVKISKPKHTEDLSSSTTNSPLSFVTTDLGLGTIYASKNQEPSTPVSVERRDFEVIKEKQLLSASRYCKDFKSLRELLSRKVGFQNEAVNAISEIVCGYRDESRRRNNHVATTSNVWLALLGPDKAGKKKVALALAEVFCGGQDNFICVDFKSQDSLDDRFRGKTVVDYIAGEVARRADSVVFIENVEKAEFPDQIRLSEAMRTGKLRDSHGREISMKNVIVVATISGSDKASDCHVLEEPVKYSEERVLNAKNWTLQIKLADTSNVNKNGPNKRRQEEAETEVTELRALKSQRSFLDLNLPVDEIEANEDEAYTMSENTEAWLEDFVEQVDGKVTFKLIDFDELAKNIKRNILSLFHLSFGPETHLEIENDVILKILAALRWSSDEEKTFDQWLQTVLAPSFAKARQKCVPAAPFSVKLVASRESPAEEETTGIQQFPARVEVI
Description: pull-down.

Another data set deals with T3, GST-SMXL8 (Arabidopsis, UniProt F4IGZ2 1-910).
T3 sequence (looked up): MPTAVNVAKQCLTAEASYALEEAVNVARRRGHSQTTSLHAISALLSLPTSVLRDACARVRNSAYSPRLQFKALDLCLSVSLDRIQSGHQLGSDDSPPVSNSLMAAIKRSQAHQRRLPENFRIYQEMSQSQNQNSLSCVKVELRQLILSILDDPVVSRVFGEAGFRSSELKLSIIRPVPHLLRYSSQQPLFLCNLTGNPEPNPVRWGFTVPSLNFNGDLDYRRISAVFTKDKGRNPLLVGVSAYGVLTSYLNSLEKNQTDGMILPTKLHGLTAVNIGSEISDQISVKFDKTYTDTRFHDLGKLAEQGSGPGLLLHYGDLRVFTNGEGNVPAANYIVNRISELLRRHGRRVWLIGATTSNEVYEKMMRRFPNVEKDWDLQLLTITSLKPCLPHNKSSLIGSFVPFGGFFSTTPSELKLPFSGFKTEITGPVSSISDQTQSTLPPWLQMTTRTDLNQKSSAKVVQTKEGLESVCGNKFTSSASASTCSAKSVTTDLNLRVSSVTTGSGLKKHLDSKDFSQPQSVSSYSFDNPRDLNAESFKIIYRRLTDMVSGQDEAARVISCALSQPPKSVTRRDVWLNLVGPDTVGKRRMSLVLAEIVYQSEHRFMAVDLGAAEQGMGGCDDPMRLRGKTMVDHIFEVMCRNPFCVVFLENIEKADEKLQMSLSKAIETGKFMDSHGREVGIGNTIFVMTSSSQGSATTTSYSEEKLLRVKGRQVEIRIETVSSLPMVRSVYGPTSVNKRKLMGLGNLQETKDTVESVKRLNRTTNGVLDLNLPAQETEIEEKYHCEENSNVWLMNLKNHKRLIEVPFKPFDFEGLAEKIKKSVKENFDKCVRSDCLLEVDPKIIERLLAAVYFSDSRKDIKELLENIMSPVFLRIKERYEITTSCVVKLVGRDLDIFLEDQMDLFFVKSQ
The data set is described as follows: pull-down.

B1: BRC1 promoter probe b (fragment F4) (dsDNA)
DNA 1: AACATAAACAAACACAAGGTCCTAATTATAGAAAAAAATC
DNA 2: GATTTTTTTCTATAATTAGGACCTTGTGTTTGTTTATGTT
As to B1, the binding result with BES1-MBP is listed as “binds”.

B2: MBP-BES1 (natural protein, Arabidopsis, UniProt Q9LN63 1-335, looked up)
chain: MTSDGATSTSAAAAAAAMATRRKPSWRERENNRRRERRRRAVAAKIYTGLRAQGNYNLPKHCDNNEVLKALCSEAGWVVEEDGTTYRKGHKPLPGDMAGSSSRATPYSSHNQSPLSSTFDSPILSYQVSPSSSSFPSPSRVGDPHNISTIFPFLRNGGIPSSLPPLRISNSAPVTPPVSSPTSRNPKPLPTWESFTKQSMSMAAKQSMTSLNYPFYAVSAPASPTHHRQFHAPATIPECDESDSSTVDSGHWISFQKFAQQQPFSASMVPTSPTFNLVKPAPQQLSPNTAAIQEIGQSSEFKFENSQVKPWEGERIHDVAMEDLELTLGNGKAHS
On to B2, for which the binding result with GST-SMXL6, in the data set with GST-SMXL7 and with GST-SMXL8 was “binds” in each case.

B3: BRC1 promoter probe a (fragment F2) (dsDNA)
DNA 1: GAACAAATGCAATATATCAATAGTTAGTGTACATATGAAG
DNA 2: CTTCATATGTACACTAACTATTGATATATTGCATTTGTTC
B3: in the data set with BES1-MBP, the binding result is recorded as “binds”.

B4: BRC1 promoter probe c (fragment F5) (dsDNA)
DNA 1: AAGAAGATTATAGTACAAGTGTCATTCTCAAAATTTTGTC
DNA 2: GACAAAATTTTGAGAATGACACTTGTACTATAATCTTCTT
Regarding B4, the binding result with BES1-MBP is recorded as “binds”.

The values above are taken from PMC7748003 (Plant Communications, 2019).
